Positions count from the first letter of the chain named.
B1: humanized antibody huC1C1-V1 (antibody, human IgG1, kappa, V domains shown)
VH: EVQLVESGGGVVQPGRSLRLSCAASGFTFSNYGMSWVRQAPGKGLEWVASISSGGDDTYYPDNVKGRCTISRDNSKNTLYLQMNSLRAEDTAVYYCTRAGGKAMDYWGQGTLVTVSS
VL: EIVLTQSPATLSLSPGERATLSCRASQSIRDNLHWYQQKPGQSPRLLINYASQSISGIPARFSGSGSGTDFTLTISSLEPEDFAVYFCQQFNSWPLTFGQGTKVEIKR
notes: Human IgG1/kappa; also called humanized C1C1-V1
B2: humanized antibody huC1C1-V2 (antibody, human IgG1, kappa, V domains shown)
VH: B1 VH with C68F
VL: B1 VL
notes: Human IgG1/kappa
B3: humanized antibody huC1C1-V5 (antibody, human IgG1, kappa, V domains shown)
VH: B1 VH
VL: B1 VL with F87Y
notes: Human IgG1/kappa; also called humanized C1C1-V5
B4: humanized antibody huC1C1-V3 (antibody, human IgG1, kappa, V domains shown)
VH: B1 VH
VL: B1 VL with S43A
notes: Human IgG1/kappa
B5: humanized antibody huC1C1-V4 (antibody, human IgG1, kappa, V domains shown)
VH: B1 VH
VL: B1 VL with N49Y
notes: Human IgG1/kappa
B6: humanized antibody huC1C1-V6 (antibody, human IgG1, kappa, V domains shown)
VH: B1 VH
VL: B1 VL with S43A, N49Y, F87Y
notes: Human IgG1/kappa
B7: mouse anti-CD40 monoclonal antibody 1B2 (antibody, V domains shown)
VH: EVQLQQSGPELVKPGASVKMSCKASGYTFTDYVMHWVKQKPGQGLECIGYINPYNDGTKYNEKFKGKATLTSDKSSSAAYLELSSLTSEDSAVYYCARGFLRESWFGYWGQGTLVTVSA
VL: DVLMTQTPLSLPVSLGDQASISCRSSQNIVHSNGNTYLDWYLQKPGQSPKLLIYKVSNRFSGVPDRFSGSGSGTDFTLKINRVEAEDLGVYYCFQGSHVPPTFGAGTKLELK
notes: Purified from hybridoma supernatant; also called Mouse 1B2

molecular target: T1, human CD40-Fc protein (amino acid residue 21-193 of SEQ ID NO: 67 linked to N-terminus of amino acid residue … (human, biotin-labeled in the capture ELISA and in the benchmark blocking ELISA; unlabeled when coated in the ligand blocking ELISA); experiment: capture ELISA; antibody captured, biotin-labeled human CD40-Fc in solution
T1 construct: also called biotin-labeled human CD40-Fc; human CD40-Fc-biotin
Protocol: (§1) Plates were washed 4 times with wash buffer (PBS+0.05% Tween-20, PBST) and then blocked with 200 μl/well blocking buffer (5% w/v non-fatty milk in PBST) for 2 hours at 37° C. […] After a final wash, plates were incubated with 100 μl/well ELISA substrate TMB (Innoreagents, Cat # TMB-S-002). The reaction was stopped in 15 minutes at 25° C. with 50 μl/well 1M H₂SO₄, and the absorbance was read at 450 nm and plotted against antibody concentration. Data were analyzed using Graphpad Prism software and EC₅₀ values were reported.

Row | EC50 [ng/mL] | Binder
1 | 0.382 | B1
2 | 0.428 | B2
3 | 0.355 | B3
4 | 0.336 | B4
5 | 0.267 | B5

molecular target: T1, human CD40-Fc protein (amino acid …); experiment: capture ELISA, biotin human CD40-Fc; mAb at 0.64 ng/mL
Protocol: as §1

Row | absorbance at 450 nm [OD450] | Binder
6 | 0.035 | B1
7 | 0.029 | B2
8 | 0.033 | B3
9 | 0.032 | B4
10 | 0.039 | B5

molecular target: T2, Human CD40-his protein (Acro biosystems, Cat # CD0-H5228) (human, UniProt P25942 21-193); experiment: SPR, Biacore; antibody captured, human CD40-his flowed
T2 construct: Bought reagent; not shown: his tag
From the text: Briefly, goat anti-mouse IgG (GE healthcare, Cat # BR100838, Mouse Antibody Capture Kit) was covalently linked to a CM5 or a Protein G chip (carboxy methyl dextran coated chip) via primary amines, using a standard amine coupling kit provided by Biacore (GE healthcare, Pittsburgh, Pa., USA). Un-reacted moieties on the biosensor surface were blocked with ethanolamine. […] Then, human CD40-his (Acro biosystems, Cat # CD0-H5228) or cynomolgus monkey CD40-his protein (Acro biosystems, Cat # CD0-052H6) in HBS EP buffer (provided by Biacore) was flowed onto the chip at a flow rate of 30 μL/min. The antigen-antibody association kinetics was followed for 2 minutes and the dissociation kinetics was followed for 10 minutes. The association and dissociation curves were fit to a 1:1 Langmuir binding model using BIA evaluation software.

Row | Kd [nM] | koff [s⁻¹] | kon [M⁻¹ s⁻¹] | Binder
11 | 11.6 | 0.00881 | 763000 | B6

molecular target: T1, human CD40-Fc protein (amino acid …); experiment: capture ELISA, biotin human CD40-Fc; mAb at 16 ng/mL
Protocol: as §1

Row | absorbance at 450 nm [OD450] | Binder
12 | 0.353 | B1
13 | 0.3 | B2
14 | 0.34 | B3
15 | 0.357 | B4
16 | 0.459 | B5

molecular target: T3, full length human CD40 (uniprot # P25942-1) on the membrane of 293T-CD40 cells (human, UniProt P25942 21-277); experiment: flow cytometry on 293T-CD40 cells, PE-labeled secondary antibody, MFI
T3 construct: also called cell surface CD40
Protocol: (§2) 2×10⁵ cells per well in 96 well-plates were incubated with the mouse anti-CD40 antibodies or the controls of various concentrations in FACS buffer for 40 minutes on ice. […] Following an incubation of 40 minutes at 4° C. in dark, cells were washed three times and resuspended in FACS buffer. Fluorescence was measured using a Becton Dickinson FACS Canto II-HTS equipment and plotted against antibody concentration.

Row | EC50 (read off the curve) [nM] | Binder
17 | ~3 | B7

molecular target: T1, human CD40-Fc protein (amino acid …); experiment: capture ELISA, biotin human CD40-Fc; mAb at 10000 ng/mL
Protocol: as §1

Row | absorbance at 450 nm [OD450] | Binder
18 | 1.9 | B1
19 | 1.82 | B2
20 | 1.77 | B3
21 | 1.8 | B4
22 | 1.84 | B5

molecular target: T1, human CD40-Fc protein (amino acid …); experiment: capture ELISA; antibody captured, biotin-labeled human CD40-Fc in solution; remark: another data set of the same source
Protocol: as §1

Row | EC50 [nM] | Binder
23 | 47.1 | B7

molecular target: T3, full length human CD40 (uniprot # …); experiment: cell-based or functional assay

Row | Cell-based Reporter assay (EC50, nM) [nM] | Binder
24 | 6.36 | B7

molecular target: T1, human CD40-Fc protein (amino acid …); experiment: capture ELISA, biotin human CD40-Fc; mAb at 400 ng/mL
Protocol: as §1

Row | absorbance at 450 nm [OD450] | Binder
25 | 1.73 | B1
26 | 1.62 | B2
27 | 1.66 | B3
28 | 1.72 | B4
29 | 1.63 | B5

molecular target: T1, human CD40-Fc protein (amino acid …); experiment: capture ELISA, biotin human CD40-Fc; mAb at 2000 ng/mL
Protocol: as §1

Row | absorbance at 450 nm [OD450] | Binder
30 | 1.78 | B1
31 | 1.72 | B2
32 | 1.68 | B3
33 | 1.71 | B4
34 | 1.7 | B5

molecular target: T1, human CD40-Fc protein (amino acid …); experiment: competitive ELISA; biotin human CD40-Fc in solution, competitor coated BM2
Protocol: The ability of the mouse anti-CD40 antibodies of the present invention to block the binding of the Benchmark to human CD40 was measured using a competitive ELISA assay. […] The next day, plates were washed with wash buffer, and blocked with 5% w/v non-fatty milk in PBST for 2 hours at 37° C. Plates were then washed again using wash buffer. […] After incubation at 37° C. for 40 minutes, plates were washed 4 times using wash buffer. Then streptavidin conjugated HRP was added and incubated for 40 minutes at 37° C. to detect biotin-labeled human CD40-Fc bound to plates. Plates were washed again using wash buffer. Finally, TMB was added and the reaction was stopped using 1M H₂SO₄, and the absorbance was read at 450 nm. Data were analyzed using Graphpad Prism software and IC₅₀ values were reported.

Row | IC50 [nM] | Binder
35 | 4.76 | B7

molecular target: T1, human CD40-Fc protein (amino acid …); experiment: capture ELISA, biotin human CD40-Fc; mAb at 3.2 ng/mL
Protocol: as §1

Row | absorbance at 450 nm [OD450] | Binder
36 | 0.083 | B1
37 | 0.073 | B2
38 | 0.083 | B3
39 | 0.083 | B4
40 | 0.103 | B5

molecular target: T1, human CD40-Fc protein (amino acid …); experiment: capture ELISA, biotin human CD40-Fc; mAb at 80 ng/mL
Protocol: as §1

Row | absorbance at 450 nm [OD450] | Binder
41 | 1.12 | B1
42 | 1.02 | B2
43 | 1.1 | B3
44 | 1.15 | B4
45 | 1.25 | B5

molecular target: T1, human CD40-Fc protein (amino acid …); experiment: competitive ELISA; coated human CD40-Fc, competitor biotin human CD40L-his
Protocol: Briefly, human CD40-Fc proteins (amino acid residue 21-193 of SEQ ID NO: 67 linked to N-terminus of amino acid residue 99-330 of SEQ ID NO.: 24) were coated on 96-well micro plates at 2 μg/mL in coating buffer (PBS) and incubated overnight at 4° C. The next day, plates were washed with wash buffer (PBS+0.05% Tween-20, PBST), and blocked with 5% w/v non-fatty milk in PBST for 2 hours at 37° C. Plates were then washed again using wash buffer.
Serially diluted the mouse anti-CD40 antibodies of the present invention or the controls (starting at 200 nM with a four-fold serial dilution) in 2.5% w/v non-fatty milk in PBST were prepared to the plates and incubated with the human CD40-Fc proteins at room temperature for 40 minutes. […] Plates were washed again. 100 μl/well of streptavidin conjugated HRP was added and incubated for 40 minutes at 37° C. Plates were washed again using wash buffer. Finally, TMB was added and the reaction was stopped using 1M H₂SO₄, and the absorbance was read at 450 nm. Data were analyzed using Graphpad Prism software and IC₅₀ values were reported.

Row | IC50 [nM] | Binder
46 | 315 | B7

molecular target: T3, full length human CD40 (uniprot # …); experiment: flow cytometry on 293T-CD40 cells
Protocol: as §2

Row | EC50 [nM] | Binder
47 | 2.54 | B7

molecular target: T1, human CD40-Fc protein (amino acid …); experiment: capture ELISA, biotin human CD40-Fc; mAb at 0 ng/mL (blank)
Protocol: as §1

Row | absorbance at 450 nm [OD450] | Binder
48 | 0.028 | B1
49 | 0.027 | B2
50 | 0.027 | B3
51 | 0.024 | B4
52 | 0.025 | B5

Source: patent publication US20200332017A1 (SALUBRIS CHENGDU BIOTECH, published 2020)
